Series [1] addresses T1, Bacillus subtilis subtilisin E variant Q103R (Bacillus subtilis, UniProt P04189, A256V/Q209R).
T1 construct: each contain 275 residues; made in house; host or cells: Bacillus subtilis DB428 (vector pKWC), secreted into the medium
T1 sequence (P04189 107-381 Q209R/A256V): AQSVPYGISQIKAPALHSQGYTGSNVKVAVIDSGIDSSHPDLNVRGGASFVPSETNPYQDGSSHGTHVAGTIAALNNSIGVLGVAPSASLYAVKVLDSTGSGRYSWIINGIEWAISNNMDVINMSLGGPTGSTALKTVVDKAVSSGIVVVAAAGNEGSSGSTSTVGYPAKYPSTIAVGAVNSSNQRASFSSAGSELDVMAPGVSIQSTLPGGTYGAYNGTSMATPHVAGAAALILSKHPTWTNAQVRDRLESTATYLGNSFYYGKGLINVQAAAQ
Put plainly: Amidase activity: hydrolysis of p-nitroanilide peptide substrates. The class given is biochemical. Conditions: 0.1M Tris-HCl, 10 mM CaCl2, pH 8, 37° C. Here is the method:
(§1) The amidase activities of subtilisin and derivatives thereof were measured on the substrate succinyl-Ala-Ala-Pro-Phe-p-nitroanilide (sAAPF-pna) at 37° C. in 0.1M Tris-HCl, pH 8.0 and 10 mM CaCl2. Assays were initiated by mixing the enzyme, the substrate and the reaction buffer. The amount of released p-nitroaniline was measured spectrophotometrically at 410 nm as a function of time. KM and kcat values for hydrolysis of sAAPF-pna by the subtilisin variants were obtained by nonlinear regression of the data using the program Enzfitter (Biosoft).
(§2) For activity measurements in mixed buffer (containing DMF), a portion of the aqueous buffer was replaced by the percentage (w/v) of DMF indicated in Table II. Kinetic constants are reported in Table II for the wild-type enzyme and six variants with 3-10 amino acid substitutions in 20% and 40% DMF.
(§3) The effects of different amino acid substitutions at position 103 on amidase activity were investigated. The variants Q103E, Q103K, and Q103S were constructed by PCR site-directed mutagenesis as described in Example VIII. The amidase activities of these variants and the variant Q103R identified by random mutagenesis and screening for enhanced activity in the presence of DMF (Example IV) are compared in Table III. The reactions were carried out in 10% DMF according to the procedures outlined in Examples XI and XII.
(§4) The effects of the Q103R amino acid substitution on amidase activity were investigated for two substrates, succinyl-Ala-Ala-Pro-Phe-p-nitroanilide (negatively-charged succinyl group at the peptide N-terminus) and Ala-Ala-Pro-Phe-p-nitroanilide (positively charged N-terminus) in 10% DMF.

Series [2] concerns the target T2, Bacillus subtilis subtilisin E variant 3M (D60N + Q103R + N218S) (Bacillus subtilis, UniProt P04189, A256V/D166N/N324S/Q209R).
T2 construct: each contain 275 residues; made in house; host or cells: Bacillus subtilis DB428 (vector pKWC), secreted into the medium
T2 sequence (P04189 107-381 D166N/Q209R/A256V/N324S): T1 sequence (P04189 107-381 Q209R/A256V) with D60N, N218S
The series is described as follows: Transesterification of methyl ester to ethyl ester in organic solvents. Conditions: 1M ethanol, 32° C. It is filed as biochemical. The method, then:
(§5) The activity of the D60N+Q103R+N218S (3M) subtilisin E triple variant was compared to that of the wild-type enzyme for the transesterification of N-acetyl-L-phenylalanine methyl ester to the ethyl ester in three organic solvents. The reactions were carried out in 2 mL volumes of the indicated solvent, containing 1 mg/mL of enzyme, 100 mM N-acetyl-L-phenylalanine methyl ester, 1M ethanol. The samples were incubated, with shaking, at 32° C., and the formation of the ethyl ester product was measured by capillary gas chromatography. Values of the kinetic constants kcat /KM are given in Table VII for the wild-type and 3M variant enzymes. In all three solvents, anhydrous hexane, hexane containing 0.1% water, and acetonitrile containing 0.1% water, the D60N+Q103R+N218S (3M) triple variant was considerably more efficient than the wild-type enzyme.

Series [3] addresses T3, Bacillus subtilis subtilisin E (subtilisin I168, aprA gene product), wild type, SEQ ID NO: 1 (Bacillus subtilis, UniProt P04189).
T3 construct: each contain 275 residues; made in house; host or cells: Bacillus subtilis DB428 (vector pKWC), secreted into the medium
The description is as above. To be noted: 1M ethanol, 32° C. The class given is biochemical. The method, then:
as §5

Substrate in series [4]: C[C@H](NC(=O)CCC(=O)O)C(=O)N[C@@H](C)C(=O)N1CCC[C@H]1C(=O)N[C@@H](Cc1ccccc1)C(=O)Nc1ccc([N+](=O)[O-])cc1
The series is described as follows: Amidase activity: hydrolysis of p-nitroanilide peptide substrates. The class given is biochemical, Bacillus subtilis. To be noted: 0.1M Tris-HCl, 10 mM CaCl2, pH 8, 37° C.

Substrate in series [5]: C[C@H](N)C(=O)N[C@@H](C)C(=O)N1CCC[C@H]1C(=O)N[C@@H](Cc1ccccc1)C(=O)Nc1ccc([N+](=O)[O-])cc1
The description is as above. It is filed as biochemical, Bacillus subtilis. To be noted: other: 10% DMF (Table IV), 0.1M Tris-HCl, 10 mM CaCl2, pH 8, 37° C.

Substrate in series [6]: C[C@H](NC(=O)CCC(=O)O)C(=O)N[C@@H](C)C(=O)N1CCC[C@H]1C(=O)N[C@@H](Cc1ccccc1)C(=O)Nc1ccc([N+](=O)[O-])cc1
The series is described as above. To be noted: other: 0% DMF, 0.1M Tris-HCl, 10 mM CaCl2, pH 8, 37° C. The class given is biochemical, Bacillus subtilis. Here is the method:
as §1, §2

Substrate in series [7]: C[C@H](NC(=O)CCC(=O)O)C(=O)N[C@@H](C)C(=O)N1CCC[C@H]1C(=O)N[C@@H](Cc1ccccc1)C(=O)Nc1ccc([N+](=O)[O-])cc1
The series is described as follows: Amidase activity: hydrolysis of p-nitroanilide peptide substrate. To be noted: other: 0% DMF, 0.1M Tris-HCl, 10 mM CaCl2, pH 8, 37° C. It is filed as biochemical, Bacillus subtilis. The method, then:
as §1, §2

Substrate in series [8]: C[C@H](NC(=O)CCC(=O)O)C(=O)N[C@@H](C)C(=O)N1CCC[C@H]1C(=O)N[C@@H](Cc1ccccc1)C(=O)Nc1ccc([N+](=O)[O-])cc1
Described as above. Conditions: other: 10% DMF, 0.1M Tris-HCl, 10 mM CaCl2, pH 8, 37° C. It is filed as biochemical, Bacillus subtilis. The method, then:
as §1, §2, §3

Substrate in series [9]: C[C@H](NC(=O)CCC(=O)O)C(=O)N[C@@H](C)C(=O)N1CCC[C@H]1C(=O)N[C@@H](Cc1ccccc1)C(=O)Nc1ccc([N+](=O)[O-])cc1
Put plainly: Amidase activity: hydrolysis of p-nitroanilide peptide substrates. Conditions: 0.1M Tris-HCl, 10 mM CaCl2, pH 8, 37° C. It is filed as biochemical, Bacillus subtilis. Here is the method: as §1, §2, §3, §4
This is another data set of the same source.

Changes are numbered by the printed parent chain. Numbers in names are those of the source. Starred links: 1 amine or outer side, 2 acyl side, 3 side chain; linkers in the order of their positions; H or OH if unused. Residues, ends and D or L forms follow the SMILES beside them. *: point of attachment. pNA = O=[N+]([O-])c1ccc(N*)cc1; Suc = O=C(CCC(=O)[*:2])[*:1] A value given as a limit tells only on which side of the number the result lay.

This note sets out measurements from US5316935A, “Subtilisin variants suitable for hydrolysis and synthesis in organic media” (California Institute of Technology, priority 1992, dated 1994).

For orientation: Km means the substrate concentration at which the rate is half of its maximum. The kcat is the maximal rate divided by the concentration of active sites.

T3 sequence (P04189 107-381): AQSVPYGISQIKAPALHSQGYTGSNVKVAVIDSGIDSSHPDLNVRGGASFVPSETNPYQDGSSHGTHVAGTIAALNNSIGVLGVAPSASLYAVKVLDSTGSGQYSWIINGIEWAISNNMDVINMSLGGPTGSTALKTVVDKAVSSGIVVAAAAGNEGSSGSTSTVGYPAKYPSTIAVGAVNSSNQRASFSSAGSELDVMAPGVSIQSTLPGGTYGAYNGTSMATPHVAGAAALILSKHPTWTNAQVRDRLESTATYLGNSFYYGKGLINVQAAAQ

In the case of `C[C@H](NC(=O)CCC(=O)O)C(=O)N[C@@H](C)C(=O)N1CCC[C@H]1C(=O)N[C@@H](Cc1ccccc1)C(=O)Nc1ccc([N+](=O)[O-])cc1` [succinyl-Ala-Ala-Pro-Phe-p-nitroanilide] (Suc-AAPF-pNA), the “kcat /KM” value in series [1] (20% DMF) is 6.8 M^-1 s^-1 × 10^-3.

Regarding `C[C@H](N)C(=O)N[C@@H](C)C(=O)N1CCC[C@H]1C(=O)N[C@@H](Cc1ccccc1)C(=O)Nc1ccc([N+](=O)[O-])cc1` [AAPFpna, Ala-Ala-Pro-Phe-p-nitroanilide] (H-AAPF-pNA), in [1] (10% DMF (Table IV)), the Km was no less than 37000 µM, the catalytic constant (kcat) is no less than 2.6 s⁻¹ and the “kcat /KM” value was determined as 0.07 M^-1 s^-1 × 10^3.

On to `COC(=O)[C@H](Cc1ccccc1)NC(C)=O` [N-acetyl-L-phenylalanine methyl ester], for which the “kcat /KM” value was 3.1 Min^-1 mg^-1 × 10^-3 in series [2] (Ch3 CN (0.1% water)); 220 Min^-1 mg^-1 × 10^-3 in series [2] (hexane (0.1% water)); 17 Min^-1 mg^-1 × 10^-3 in series [2] (hexane (anhydrous)); 0.3 Min^-1 mg^-1 × 10^-3 in series [3] (Ch3 CN (0.1% water)); 5 Min^-1 mg^-1 × 10^-3 in [3] (hexane (0.1% water)); 0.4 Min^-1 mg^-1 × 10^-3 in series [3] (hexane (anhydrous)).

B1: Bacillus subtilis subtilisin E (subtilisin I168, aprA gene product), wild type, SEQ ID NO: 1 (Bacillus subtilis subsp. subtilis str. 168) (protein)
chain: T1 sequence (P04189 107-381 Q209R/A256V) with R103Q, V150A
notes: each contain 275 residues; made in house; host or cells: Bacillus subtilis DB428 (vector pKWC), secreted into the medium
For B1, the Km is 2900 µM in [4] (other: 10% DMF (Table III)), 510 µM in [4] (other: 10% DMF (Table IV)), 7800 µM in [5] and 560 µM in series [6]. In addition, the kcat in series [4] (other: 10% DMF (Table III)) stood at 20 s⁻¹; in [4] (other: 10% DMF (Table IV)) it was 21 s⁻¹; in [5], 0.83 s⁻¹; in series [6] it was 21 s⁻¹. The kcat/Km in series [4] (other: 10% DMF (Table III)) turned out to be 7.0 M^-1 s^-1 × 10^3; in [4] (other: 10% DMF (Table IV)), 41 M^-1 s^-1 × 10^3; in series [5], 0.11 M^-1 s^-1 × 10^3; in [6], 38 M^-1 s^-1 × 10^3.

B2: Bacillus subtilis subtilisin E variant 7M (D60N + Q103R + N218S + D97G + E156G + N181S + G131D) (Bacillus subtilis subsp. subtilis str. 168; … (protein)
chain: T1 sequence (P04189 107-381 Q209R/A256V) with D60N, D97G, G131D, E156G, N181S, N218S
As for B2, in series [7], the Km is 30 µM, the kcat was found to be 18 s⁻¹ and the kcat/Km is listed as 606 M^-1 s^-1 × 10^3.

B3: Bacillus subtilis subtilisin E variant 4M (D60N + Q103R + N218S + D97G) (Bacillus subtilis subsp. subtilis str. 168; A256V/D166N/D203G/N324S/Q209R) (protein)
chain: T1 sequence (P04189 107-381 Q209R/A256V) with D60N, D97G, N218S
notes: as for B1
For B3, in series [7], the Km came out at 170 µM, the turnover number (kcat) was found to be 43 s⁻¹ and the kcat/Km is reported as 249 M^-1 s^-1 × 10^3.

B4: Bacillus subtilis subtilisin E variant 3M (D60N + Q103R + N218S) (Bacillus subtilis subsp. subtilis str. 168; A256V/D166N/N324S/Q209R) (protein)
chain: T1 sequence (P04189 107-381 Q209R/A256V) with D60N, N218S
notes: as for B1
With B4, in [7], the Km amounted to 110 µM, the kcat came to 40 s⁻¹ and the kcat/Km worked out at 360 M^-1 s^-1 × 10^3.

B5: Bacillus subtilis subtilisin E variant Q103S (Bacillus subtilis subsp. subtilis str. 168; A256V/Q209S) (protein)
chain: T1 sequence (P04189 107-381 Q209R/A256V) with R103S
notes: as for B1
Take B5: in series [8], the Km stood at 3000 µM, the kcat amounted to 20 s⁻¹ and the kcat/Km stood at 7.0 M^-1 s^-1 × 10^3.

B6: Bacillus subtilis subtilisin E variant 6M (D60N + Q103R + N218S + D97G + E156G + N181S) (Bacillus subtilis subsp. subtilis str. 168; … (protein)
chain: T1 sequence (P04189 107-381 Q209R/A256V) with D60N, D97G, E156G, N181S, N218S
For the molecule B6, in [7], the Km amounted to 40 µM, the catalytic constant (kcat) amounted to 12 s⁻¹ and the kcat/Km is 268 M^-1 s^-1 × 10^3.

B7: Bacillus subtilis subtilisin E variant Q103R (Bacillus subtilis subsp. subtilis str. 168; A256V/Q209R) (protein)
chain: T1 sequence (P04189 107-381 Q209R/A256V)
notes: as for B1
Regarding B7, in series [9] (other: 0% DMF), the Km came out at 250 µM and the kcat is 31 s⁻¹. In series [9] (other: 10% DMF (Table III)), the Km worked out at 1300 µM, the kcat was determined as 34 s⁻¹ and the kcat/Km came out at 26 M^-1 s^-1 × 10^3.
